# B1: GTP-binding protein Rit2 (Mus musculus), P70425 (parent)
# chain: MEVENEAHCCPGSSSGGSREYKVVMLGAGGVGKSAVTMQFISHQFPDYHDPTIEDAYKTQVRIDNEPAYLDILDTAGQAEFTAMREQYMRGGEGFIICYSVTDRQSFQEAAKFKELIFQVRHTYEIPLVLVGNKIDLEQFRQVSTEEGMNLARDYNCAFFETSAALRFGIDDAFQGLVREIRRKESMLSLVERKLKRKDSLWKKIKASLKKKRENML
# B2: GTP-binding protein Rit2 (Mus musculus), P70425 (parent)
# chain: B1 chain
# partner: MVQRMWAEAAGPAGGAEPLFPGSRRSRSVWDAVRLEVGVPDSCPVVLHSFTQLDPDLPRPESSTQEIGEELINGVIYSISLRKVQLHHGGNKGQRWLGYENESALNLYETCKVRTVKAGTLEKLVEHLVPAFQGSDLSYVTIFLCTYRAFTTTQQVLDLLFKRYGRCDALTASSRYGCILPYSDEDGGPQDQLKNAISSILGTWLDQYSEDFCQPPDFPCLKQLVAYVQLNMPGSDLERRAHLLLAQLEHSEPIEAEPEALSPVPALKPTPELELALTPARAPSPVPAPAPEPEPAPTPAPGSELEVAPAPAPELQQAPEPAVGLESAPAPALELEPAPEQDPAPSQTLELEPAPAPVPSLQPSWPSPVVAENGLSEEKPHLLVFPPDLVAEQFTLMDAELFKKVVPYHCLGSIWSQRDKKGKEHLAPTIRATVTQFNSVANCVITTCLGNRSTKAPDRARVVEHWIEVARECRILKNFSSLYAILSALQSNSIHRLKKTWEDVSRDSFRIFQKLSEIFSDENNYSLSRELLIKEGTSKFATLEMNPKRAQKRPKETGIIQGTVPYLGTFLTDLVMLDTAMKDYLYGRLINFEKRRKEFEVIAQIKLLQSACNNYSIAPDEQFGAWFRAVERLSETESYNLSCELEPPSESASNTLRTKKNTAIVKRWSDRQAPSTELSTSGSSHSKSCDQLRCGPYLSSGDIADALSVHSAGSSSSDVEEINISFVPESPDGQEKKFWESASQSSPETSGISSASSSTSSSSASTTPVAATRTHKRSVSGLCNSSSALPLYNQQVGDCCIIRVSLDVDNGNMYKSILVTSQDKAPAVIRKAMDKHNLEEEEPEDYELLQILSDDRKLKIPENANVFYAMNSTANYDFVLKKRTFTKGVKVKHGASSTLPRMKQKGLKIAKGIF
# Variants of: B1
# Details: with rlf_human RLF
row,effect of a mutation on the interaction,Variant
1,decreasing interaction,MEVENEAHCCPGSSSGGSREYKVVMLGAGGVGKNAVTMQFISHQFPDYHDPTIEDAYKTQVRIDNEPAYLDILDTAGQAEFTAMREQYMRGGEGFIICYSVTDRQSFQEAAKFKELIFQVRHTYEIPLVLVGNKIDLEQFRQVSTEEGMNLARDYNCAFFETSAALRFGIDDAFQGLVREIRRKESMLSLVERKLKRKDSLWKKIKASLKKKRENML [S34N]

# Variants of: B1
# Details: with afad_human AFDN
row,effect of a mutation on the interaction,Variant
1,decreasing interaction,MEVENEAHCCPGSSSGGSREYKVVMLGAGGVGKNAVTMQFISHQFPDYHDPTIEDAYKTQVRIDNEPAYLDILDTAGQAEFTAMREQYMRGGEGFIICYSVTDRQSFQEAAKFKELIFQVRHTYEIPLVLVGNKIDLEQFRQVSTEEGMNLARDYNCAFFETSAALRFGIDDAFQGLVREIRRKESMLSLVERKLKRKDSLWKKIKASLKKKRENML [S34N]

# Variants of: B2
# Details: with gnds_human RALGDS
row,effect of a mutation on the interaction,Variant
1,decreasing interaction,MEVENEAHCCPGSSSGGSREYKVVMLGAGGVGKNAVTMQFISHQFPDYHDPTIEDAYKTQVRIDNEPAYLDILDTAGQAEFTAMREQYMRGGEGFIICYSVTDRQSFQEAAKFKELIFQVRHTYEIPLVLVGNKIDLEQFRQVSTEEGMNLARDYNCAFFETSAALRFGIDDAFQGLVREIRRKESMLSLVERKLKRKDSLWKKIKASLKKKRENML [S34N]
